Substrate in the data set “purified protein”: CNCCCC(=O)c1ccc(O)nc1
As to the kind of experiment: purified protein. It counts as biochemical, Paenarthrobacter nicotinovorans. The settings on record: 500 μM PMS, 50 μM DCIP, aerobic, 30 °C, Tris-HCl pH 8.0.

Data set [1] deals with the molecule itself. As to the kind of experiment: crystal structure; Kdh holoenzyme crystallised by hanging-drop vapor diffusion at 14 °C; 1% tryptone, 0.1 M Tris-HCl pH 8.0, 25% PEG 3350; space group P212121, two heterotrimers per asymmetric unit; 3.4 Å.

B1: Kdh holoenzyme (KdhL, KdhM, KdhS); 6-hydroxypseudooxynicotine 2-oxidoreductase; ketone dehydrogenase (Paenarthrobacter nicotinovorans; R383A) (protein)
chain: MMAKAKALIPDNGRAGADEGNRQAWIGQEVLRREDRRLLTGTATFAGDLGVPGQLHMRIVRSTQAHARIVSIDATEAEKTPGVRMVITSEHTRHLGSVLLEELGYHEIYENIEDFSHPVLAVDKVLYVGQPVVAVLAVDPYLAEDAAELVSIEYEPLPVLLDPEEALTGKVELFPGRGNEGARIKKAYGDIDRAFAEAEHVIRHKYVTNRHSGVPMEPRAVVVQPDPARDTLFIWGTVHVHDNRRIIAKMLNLPEVNVRMKHVEIGGSFGVKGGVFPENVVAAWAARTLGVPIKWTEDRVEHMTSTSHAREMVHKLELALDAEGRILGMKDEIFHNHGAYFRQAEPLVSDITAGIVFGPYRVPAYDATLHAVFTNKTPVGAYAAPGRYESTFARERIFDLACAEIGLSKTEFRRRNLLTAEDLPWTPGLDIVHEPYHFDSGDVVKHFNEALEAANFSEWLEESKRLRADGRKVGVGLGVLMDKAGLGLFETGGVEVSRAGRVTVKTGGSSVGQGIETVLAQIVAEELQIAPENIDIVHSDTELIPDGVGSWSSRSTVLAGGAARKAALAVVEKARRLASEMLEADPDDLELTAGSFKVKGTDQQISLYEIAAARDPFTARADNDEPGLAADAVYMNNAMNYPYGVTLVQIELDPDTGGHRILRFSTSTEAGRVINPLTTRGQIIGAAVQGIGGALYEEFLYEEDGQPITTSFMDYLLPSAQEMPNVDCFVTEDAKSPDNPFGAKGLGEIGIIAAGAAIASAIDDAIADGVHTDRLPVTPEQIFSRCQGLNKAER
notes: kdhLMS co-expressed from pART2-kdhLMS in A. nicotinovorans pAO1; Ni-NTA (tag not described) and Superdex 200; KdhL 87 kDa, KdhM 287 residues, KdhS 160 residues; heterotrimer, dimer of heterotrimers in crystal; with 6-hydroxypseudooxynicotine dehydrogenase complex subunit alpha; 6-hydroxypseudooxynicotine dehydrogenase complex subunit beta
For orientation: Km means the substrate concentration at which the rate is half of its maximum. For orientation: kcat means the maximal rate divided by the concentration of active sites. Usually kcat/Km stands for the second-order rate constant that governs catalysis at low substrate concentration. Take B1: in “purified protein”, the Michaelis-Menten constant (Km) turned out to be 21.4 ± 2.3 µM, the kcat was 6.32 ± 0.16 s⁻¹ and the kcat/Km is 300000 ± 70000 M⁻¹ s⁻¹.

B2: Kdh holoenzyme (KdhL, KdhM, KdhS); 6-hydroxypseudooxynicotine 2-oxidoreductase; ketone dehydrogenase (Paenarthrobacter nicotinovorans; F269A) (protein)
chain: MMAKAKALIPDNGRAGADEGNRQAWIGQEVLRREDRRLLTGTATFAGDLGVPGQLHMRIVRSTQAHARIVSIDATEAEKTPGVRMVITSEHTRHLGSVLLEELGYHEIYENIEDFSHPVLAVDKVLYVGQPVVAVLAVDPYLAEDAAELVSIEYEPLPVLLDPEEALTGKVELFPGRGNEGARIKKAYGDIDRAFAEAEHVIRHKYVTNRHSGVPMEPRAVVVQPDPARDTLFIWGTVHVHDNRRIIAKMLNLPEVNVRMKHVEIGGSAGVKGGVFPENVVAAWAARTLGVPIKWTEDRVEHMTSTSHAREMVHKLELALDAEGRILGMKDEIFHNHGAYFRQAEPLVSDITAGIVFGPYRVPAYDATLHAVFTNKTPVGAYRAPGRYESTFARERIFDLACAEIGLSKTEFRRRNLLTAEDLPWTPGLDIVHEPYHFDSGDVVKHFNEALEAANFSEWLEESKRLRADGRKVGVGLGVLMDKAGLGLFETGGVEVSRAGRVTVKTGGSSVGQGIETVLAQIVAEELQIAPENIDIVHSDTELIPDGVGSWSSRSTVLAGGAARKAALAVVEKARRLASEMLEADPDDLELTAGSFKVKGTDQQISLYEIAAARDPFTARADNDEPGLAADAVYMNNAMNYPYGVTLVQIELDPDTGGHRILRFSTSTEAGRVINPLTTRGQIIGAAVQGIGGALYEEFLYEEDGQPITTSFMDYLLPSAQEMPNVDCFVTEDAKSPDNPFGAKGLGEIGIIAAGAAIASAIDDAIADGVHTDRLPVTPEQIFSRCQGLNKAER
notes: as for B1
As for B2, in “purified protein”, the Km was 25.98 ± 2.73 µM, the turnover number (kcat) was 2.3 ± 0.07 s⁻¹ and the kcat/Km came to 90000 ± 30000 M⁻¹ s⁻¹.

B3: Kdh holoenzyme (heterotrimer of KdhL, KdhM and KdhS) (complex, Arthrobacter nicotinovorans)
chain 1: MMAKAKALIPDNGRAGADEGNRQAWIGQEVLRREDRRLLTGTATFAGDLGVPGQLHMRIVRSTQAHARIVSIDATEAEKTPGVRMVITSEHTRHLGSVLLEELGYHEIYENIEDFSHPVLAVDKVLYVGQPVVAVLAVDPYLAEDAAELVSIEYEPLPVLLDPEEALTGKVELFPGRGNEGARIKKAYGDIDRAFAEAEHVIRHKYVTNRHSGVPMEPRAVVVQPDPARDTLFIWGTVHVHDNRRIIAKMLNLPEVNVRMKHVEIGGSFGVKGGVFPENVVAAWAARTLGVPIKWTEDRVEHMTSTSHAREMVHKLELALDAEGRILGMKDEIFHNHGAYFRQAEPLVSDITAGIVFGPYRVPAYDATLHAVFTNKTPVGAYRAPGRYESTFARERIFDLACAEIGLSKTEFRRRNLLTAEDLPWTPGLDIVHEPYHFDSGDVVKHFNEALEAANFSEWLEESKRLRADGRKVGVGLGVLMDKAGLGLFETGGVEVSRAGRVTVKTGGSSVGQGIETVLAQIVAEELQIAPENIDIVHSDTELIPDGVGSWSSRSTVLAGGAARKAALAVVEKARRLASEMLEADPDDLELTAGSFKVKGTDQQISLYEIAAARDPFTARADNDEPGLAADAVYMNNAMNYPYGVTLVQIELDPDTGGHRILRFSTSTEAGRVINPLTTRGQIIGAAVQGIGGALYEEFLYEEDGQPITTSFMDYLLPSAQEMPNVDCFVTEDAKSPDNPFGAKGLGEIGIIAAGAAIASAIDDAIADGVHTDRLPVTPEQIFSRCQGLN
chain 2: MKPPSFDYVVADSVEHALRLLADGGDDAKIIAGGQSLVPLLNFRMSRPSLLVDINRVPGLANIRKSDQTIAIGALTRHAKLTTSKTISQNLPILSEAAAWIAHPQIRNRGTIGGSLAHADAAAELPVVLLALDAYVTAQSLQGERKIPLKELLVSHFVSSILPGELIVEVNVPQLPHGSGAAFDEFSRRHGDYAIGGAASIVTLDEQGKCSRARITVLGGGSTAIRCQEAENILIDSTLSSHDIAAAAHAAVQGLDPVPTVHGSAQYRAQVIRTMVERTLAKALHRA
chain 3: MNAFRLTVEVNGVTHATDVEPRRLLADFLRDDLHLRGTRVGCEHGVCGSCTVLLDGQPVRSCTVLAVQANNSRIETVESLQKDGQLHPLQRSFSKCHALQCGFCTSGFLMTLKPLYDDEDVTLDATSAREAISGNICRCTGYQQIVEATVDAFHCRDHND
notes: KdhL, 87 kDa molybdopterin (MCD) subunit of Kdh, Arthrobacter nicotinovorans; KdhM, 32 kDa FAD subunit of Kdh, Arthrobacter nicotinovorans; contains 287 residues; KdhS, 17.6 kDa Fe2S2 subunit of Kdh, Arthrobacter nicotinovorans; has 160 residues; Heterotrimer with MCD, two Fe2S2 and FAD; two heterotrimers form the dimer seen in the crystal; also called ketone dehydrogenase; …
By stoichiometry N is commonly meant a count of units in the complex or per binding partner. As for B3, in data set [1], the “stoichiometry N” value is 2.

The values are drawn from article PMC8305194, “Structural, Mechanistic, and Functional Insights into an Arthrobacter nicotinovorans Molybdenum Hydroxylase Involved in Nicotine Degradation” (Molecules, 2021).
